T1: human glucose-dependent insulinotropic polypeptide receptor (GIPR) (human, UniProt P48546 22-466)
T1 sequence (looked up): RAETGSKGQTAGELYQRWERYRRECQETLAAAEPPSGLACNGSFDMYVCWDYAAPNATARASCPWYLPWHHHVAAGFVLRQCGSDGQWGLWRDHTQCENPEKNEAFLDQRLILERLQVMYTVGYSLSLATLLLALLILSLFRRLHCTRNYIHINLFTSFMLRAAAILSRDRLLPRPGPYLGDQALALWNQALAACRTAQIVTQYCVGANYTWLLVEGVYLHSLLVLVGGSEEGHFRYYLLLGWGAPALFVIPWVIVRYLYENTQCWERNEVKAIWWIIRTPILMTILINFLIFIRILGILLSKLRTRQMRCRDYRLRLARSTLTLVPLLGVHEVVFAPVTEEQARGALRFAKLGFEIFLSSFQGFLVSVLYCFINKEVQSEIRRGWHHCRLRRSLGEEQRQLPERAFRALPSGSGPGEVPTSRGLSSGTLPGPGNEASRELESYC

B1: compound 10# (peptide)
peptide: Y[Aib]EGTFTSDYSIYLEK([AEEA-AEEA-γGlu-Arachidoyl])IAAQEFINWLIAGGPSSGAPPPS-NH2
modifications: N-terminus assumed
SMILES: CCCCCCCCCCCCCCCCCCCC(=O)N[C@@H](CCC(=O)NCCOCCOCC(=O)NCCOCCOCC(=O)NCCCC[C@H](NC(=O)[C@H](CCC(=O)O)NC(=O)[C@H](CC(C)C)NC(=O)[C@H](Cc1ccc(O)cc1)NC(=O)[C@@H](NC(=O)[C@H](CO)NC(=O)[C@H](Cc1ccc(O)cc1)NC(=O)[C@H](CC(=O)O)NC(=O)[C@H](CO)NC(=O)[C@@H](NC(=O)[C@H](Cc1ccccc1)NC(=O)[C@@H](NC(=O)CNC(=O)[C@H](CCC(=O)O)NC(=O)C(C)(C)NC(=O)[C@@H](N)Cc1ccc(O)cc1)[C@@H](C)O)[C@@H](C)O)[C@@H](C)CC)C(=O)N[C@H](C(=O)N[C@@H](C)C(=O)N[C@@H](C)C(=O)N[C@@H](CCC(N)=O)C(=O)N[C@@H](CCC(=O)O)C(=O)N[C@@H](Cc1ccccc1)C(=O)N[C@H](C(=O)N[C@@H](CC(N)=O)C(=O)N[C@@H](Cc1c[nH]c2ccccc12)C(=O)N[C@@H](CC(C)C)C(=O)N[C@H](C(=O)N[C@@H](C)C(=O)NCC(=O)NCC(=O)N1CCC[C@H]1C(=O)N[C@@H](CO)C(=O)N[C@@H](CO)C(=O)NCC(=O)N[C@@H](C)C(=O)N1CCC[C@H]1C(=O)N1CCC[C@H]1C(=O)N1CCC[C@H]1C(=O)N[C@@H](CO)C(N)=O)[C@@H](C)CC)[C@@H](C)CC)[C@@H](C)CC)C(=O)O
B2: compound 14# (peptide)
peptide: Y[Aib]EGTFTSDYSIYK([AEEA-AEEA-γGlu-Arachidoyl])EKIAAQEFINWLIAGGPSSGAPPPS-NH2
modifications: N-terminus assumed
SMILES: CCCCCCCCCCCCCCCCCCCC(=O)N[C@@H](CCC(=O)NCCOCCOCC(=O)NCCOCCOCC(=O)NCCCC[C@H](NC(=O)[C@H](Cc1ccc(O)cc1)NC(=O)[C@@H](NC(=O)[C@H](CO)NC(=O)[C@H](Cc1ccc(O)cc1)NC(=O)[C@H](CC(=O)O)NC(=O)[C@H](CO)NC(=O)[C@@H](NC(=O)[C@H](Cc1ccccc1)NC(=O)[C@@H](NC(=O)CNC(=O)[C@H](CCC(=O)O)NC(=O)C(C)(C)NC(=O)[C@@H](N)Cc1ccc(O)cc1)[C@@H](C)O)[C@@H](C)O)[C@@H](C)CC)C(=O)N[C@@H](CCC(=O)O)C(=O)N[C@@H](CCCCN)C(=O)N[C@H](C(=O)N[C@@H](C)C(=O)N[C@@H](C)C(=O)N[C@@H](CCC(N)=O)C(=O)N[C@@H](CCC(=O)O)C(=O)N[C@@H](Cc1ccccc1)C(=O)N[C@H](C(=O)N[C@@H](CC(N)=O)C(=O)N[C@@H](Cc1c[nH]c2ccccc12)C(=O)N[C@@H](CC(C)C)C(=O)N[C@H](C(=O)N[C@@H](C)C(=O)NCC(=O)NCC(=O)N1CCC[C@H]1C(=O)N[C@@H](CO)C(=O)N[C@@H](CO)C(=O)NCC(=O)N[C@@H](C)C(=O)N1CCC[C@H]1C(=O)N1CCC[C@H]1C(=O)N1CCC[C@H]1C(=O)N[C@@H](CO)C(N)=O)[C@@H](C)CC)[C@@H](C)CC)[C@@H](C)CC)C(=O)O
B3: compound 12# (peptide)
peptide: Y[Aib]EGTFTSDYSIYK([AEEA-AEEA-γGlu-Arachidoyl])EKIAAQEFVNWLIAGGPSSGAPPPS-NH2
modifications: N-terminus assumed
SMILES: CCCCCCCCCCCCCCCCCCCC(=O)N[C@@H](CCC(=O)NCCOCCOCC(=O)NCCOCCOCC(=O)NCCCC[C@H](NC(=O)[C@H](Cc1ccc(O)cc1)NC(=O)[C@@H](NC(=O)[C@H](CO)NC(=O)[C@H](Cc1ccc(O)cc1)NC(=O)[C@H](CC(=O)O)NC(=O)[C@H](CO)NC(=O)[C@@H](NC(=O)[C@H](Cc1ccccc1)NC(=O)[C@@H](NC(=O)CNC(=O)[C@H](CCC(=O)O)NC(=O)C(C)(C)NC(=O)[C@@H](N)Cc1ccc(O)cc1)[C@@H](C)O)[C@@H](C)O)[C@@H](C)CC)C(=O)N[C@@H](CCC(=O)O)C(=O)N[C@@H](CCCCN)C(=O)N[C@H](C(=O)N[C@@H](C)C(=O)N[C@@H](C)C(=O)N[C@@H](CCC(N)=O)C(=O)N[C@@H](CCC(=O)O)C(=O)N[C@@H](Cc1ccccc1)C(=O)N[C@H](C(=O)N[C@@H](CC(N)=O)C(=O)N[C@@H](Cc1c[nH]c2ccccc12)C(=O)N[C@@H](CC(C)C)C(=O)N[C@H](C(=O)N[C@@H](C)C(=O)NCC(=O)NCC(=O)N1CCC[C@H]1C(=O)N[C@@H](CO)C(=O)N[C@@H](CO)C(=O)NCC(=O)N[C@@H](C)C(=O)N1CCC[C@H]1C(=O)N1CCC[C@H]1C(=O)N1CCC[C@H]1C(=O)N[C@@H](CO)C(N)=O)[C@@H](C)CC)C(C)C)[C@@H](C)CC)C(=O)O
B4: compound 9# (peptide)
peptide: Y[Aib]EGTFTSDYSIYLEK([AEEA-AEEA-γGlu-Arachidoyl])IAAQEFVNWLIAGGPSSGAPPPS-NH2
B5: compound 13# (peptide)
peptide: Y[Aib]EGTFTSDYSIYK([AEEA-AEEA-γGlu-Arachidoyl])ERIAAQEFVNWLIAGGPSSGAPPPS-NH2
modifications: N-terminus assumed
SMILES: CCCCCCCCCCCCCCCCCCCC(=O)N[C@@H](CCC(=O)NCCOCCOCC(=O)NCCOCCOCC(=O)NCCCC[C@H](NC(=O)[C@H](Cc1ccc(O)cc1)NC(=O)[C@@H](NC(=O)[C@H](CO)NC(=O)[C@H](Cc1ccc(O)cc1)NC(=O)[C@H](CC(=O)O)NC(=O)[C@H](CO)NC(=O)[C@@H](NC(=O)[C@H](Cc1ccccc1)NC(=O)[C@@H](NC(=O)CNC(=O)[C@H](CCC(=O)O)NC(=O)C(C)(C)NC(=O)[C@@H](N)Cc1ccc(O)cc1)[C@@H](C)O)[C@@H](C)O)[C@@H](C)CC)C(=O)N[C@@H](CCC(=O)O)C(=O)N[C@@H](CCCNC(=N)N)C(=O)N[C@H](C(=O)N[C@@H](C)C(=O)N[C@@H](C)C(=O)N[C@@H](CCC(N)=O)C(=O)N[C@@H](CCC(=O)O)C(=O)N[C@@H](Cc1ccccc1)C(=O)N[C@H](C(=O)N[C@@H](CC(N)=O)C(=O)N[C@@H](Cc1c[nH]c2ccccc12)C(=O)N[C@@H](CC(C)C)C(=O)N[C@H](C(=O)N[C@@H](C)C(=O)NCC(=O)NCC(=O)N1CCC[C@H]1C(=O)N[C@@H](CO)C(=O)N[C@@H](CO)C(=O)NCC(=O)N[C@@H](C)C(=O)N1CCC[C@H]1C(=O)N1CCC[C@H]1C(=O)N1CCC[C@H]1C(=O)N[C@@H](CO)C(N)=O)[C@@H](C)CC)C(C)C)[C@@H](C)CC)C(=O)O

Starred links: 1 amine or outer side, 2 acyl side, 3 side chain; linkers in the order of their positions; H or OH if unused. Non-standard residues stand in square brackets, D forms with d. Groups on a side chain read outwards from the residue. No end group written: not given here. *: point of attachment. Arachidoyl = CCCCCCCCCCCCCCCCCCCC(=O)*; γGlu = O=C(O)[C@H](CCC(=O)[*:2])N[*:1]; AEEA = NCCOCCOCC(=O)O; Aib = CC(C)(N)C(=O)O

For the first experiment, the target named is human glucagon-like peptide-1 receptor (GLP-1R) (human, UniProt P43220 24-463). The experiment is described as follows: cell-based or functional assay.
On to B1, for which the “Activity against human GLP-1R (EC50 nM); cAMP HTRF, CHO-K1/GLP-1R/CRE-luc cells” value (from here on “Activity against human GLP-1R (EC50 nM)”) is 0.065 nM.

Regarding B2, the “Activity against human GLP-1R (EC50 nM)” value came out at 0.013 nM.

Consider B3, for which the “Activity against human GLP-1R (EC50 nM)” value is 0.03 nM.

Take B4: the “Activity against human GLP-1R (EC50 nM)” value stood at 0.049 nM.

As for B5, the “Activity against human GLP-1R (EC50 nM)” value was 0.017 nM.

The next experiment has as its target T1, human glucose-dependent insulinotropic …. Briefly: cell-based or functional assay.
Take B1: the “Activity against human GIPR (EC50 nM); cAMP HTRF, CHO-K1 cells overexpressing hGIP receptor” value (from here on “Activity against human GIPR (EC50 nM)”) is 0.056 nM.

Consider B2, for which the “Activity against human GIPR (EC50 nM)” value came out at 0.13 nM.

For the molecule B3, the “Activity against human GIPR (EC50 nM)” value amounted to 0.17 nM.

In the case of B4, the “Activity against human GIPR (EC50 nM)” value was 0.04 nM.

In the case of B5, the “Activity against human GIPR (EC50 nM)” value is 0.13 nM.

(Values after patent publication US20260014232A1, “Pharmaceutical Composition of GLP-1 and GIP Receptor Dual Agonist and Use Thereof” (Jiangsu Hengrui Pharmaceuticals Co., Ltd., priority 2021, published 2026).)
